Consider two molecules from publication PMC6176016 (2018).

The target in test [1] is T1, FLAG-tagged multimerized MegaAPRIL.
T1 chain: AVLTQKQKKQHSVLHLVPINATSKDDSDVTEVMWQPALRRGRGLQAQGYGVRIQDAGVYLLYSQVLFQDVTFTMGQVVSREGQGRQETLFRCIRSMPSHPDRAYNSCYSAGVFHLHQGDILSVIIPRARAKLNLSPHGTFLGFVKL
Description: MST.

In test [2] the target is BAFF (as used in microscale thermophoresis) (UniProt Q9Y275 134-285). Description: MST.
BAFF (as used in microscale thermophoresis), sequence (Q9Y275 134-285): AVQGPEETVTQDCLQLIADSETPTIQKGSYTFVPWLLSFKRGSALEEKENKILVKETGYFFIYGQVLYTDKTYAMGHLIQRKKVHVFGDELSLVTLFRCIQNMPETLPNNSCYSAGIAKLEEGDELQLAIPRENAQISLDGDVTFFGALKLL

B1: FLAG-tagged TACI-S, purified recombinant (receptor)
chain: MSGLGRSRRGGRSRVDQEERWSLSCRKEQGKFYDHLLRDCISCASICGQHPKQCAYFCENKLRSPVNLPPELRRQRSGEVENNSDNSGRYQGLEHRGSEASPALPGLKLSADQVALVYSTLGLCLCAVLCCFLVAVACFLKKRGDPCSCQPRSRPRQSPAKSSQDHAMEAGSPVSTSPEPVETCSFCFPECRAPTQESAVTPGTPDPTCAGRWGCHTRTTVLQPCPHIPDSGLGIVCVPAQEGGPGA
modifications: fluorescently labeled at the N-terminus (Monolith NT Protein Labeling Kit RED-NHS)
By Kd is commonly meant a measure of binding affinity in units of concentration. On to B1, for which the values for the equilibrium dissociation constant (Kd) in test [1] and in test [2] were 185 nM and 586 nM, respectively.

B2: FLAG-TACI-L (receptor)
chain: MSGLGRSRRGGRSRVDQEERFPQGLWTGVAMRSCPEEQYWDPLLGTCMSCKTICNHQSQRTCAAFCRSLSCRKEQGKFYDHLLRDCISCASICGQHPKQCAYFCENKLRSPVNLPPELRRQRSGEVENNSDNSGRYQGLEHRGSEASPALPGLKLSADQVALVYSTLGLCLCAVLCCFLVAVACFLKKRGDPCSCQPRSRPRQSPAKSSQDHAMEAGSPVSTSPEPVETCSFCFPECRAPTQESAVTPGTPDPTCAGRWGCHTRTTVLQPCPHIPDSGLGIVCVPAQEGGPGA
modifications: for MST only: fluorescently labeled at the N-terminus (Monolith NT Protein Labeling Kit RED-NHS)
As to B2, the dissociation constant (Kd) came out at 567 nM in test [1] and 1080 nM in test [2].
